The assay has as its target T1, V5-tagged SHOC2^S2G (human SHOC2 Ser2Gly mutant) (human, UniProt Q5RAV5 1-582 (Pongo abelii entry), limits assumed, N-myristoylation at the N-terminal glycine (Gly 2) after excision of the initiator methionine; [3H]myristic acid incorporation shown in Cos-1 cells).
T1 construct: Expressed transiently in Cos-1 cells, with human NMT1 co-transfected, from a V5-tagged human SHOC2 cDNA construct made by site-directed mutagenesis; Tested in cell lysates by co-immunoprecipitation; also called mutant SHOC2; not shown: V5 tag
T1 sequence: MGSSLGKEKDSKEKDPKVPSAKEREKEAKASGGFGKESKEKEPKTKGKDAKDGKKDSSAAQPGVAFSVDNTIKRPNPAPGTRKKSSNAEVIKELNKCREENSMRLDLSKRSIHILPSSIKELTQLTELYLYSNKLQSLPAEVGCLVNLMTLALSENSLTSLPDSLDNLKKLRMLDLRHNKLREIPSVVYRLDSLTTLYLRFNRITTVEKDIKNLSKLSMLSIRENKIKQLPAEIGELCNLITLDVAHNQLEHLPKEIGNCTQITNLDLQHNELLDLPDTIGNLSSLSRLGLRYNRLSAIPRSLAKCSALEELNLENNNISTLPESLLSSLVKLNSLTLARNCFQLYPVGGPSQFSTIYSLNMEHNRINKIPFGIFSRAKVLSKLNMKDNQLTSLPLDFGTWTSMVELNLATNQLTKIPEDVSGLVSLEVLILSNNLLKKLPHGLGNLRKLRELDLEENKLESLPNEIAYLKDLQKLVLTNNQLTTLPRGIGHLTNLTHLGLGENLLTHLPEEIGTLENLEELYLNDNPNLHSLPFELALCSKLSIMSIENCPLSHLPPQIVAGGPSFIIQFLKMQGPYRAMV
The assay can be described thus: co-immunoprecipitation (anti-Myc or anti-V5, western blot) and confocal microscopy in COS-1 cells co-transfected with V5- and Myc-tagged proteins. (In general: In western blotting, separated proteins are transferred to a membrane and probed.)

Here are results for one molecule from patent publication US20110059851A1 (MOUNT SINAI SCHOOL OF MEDICINE OF NEW YORK UNIVERSITY, published 2011).

B1: Myc-tagged SHOC2^wt (wild-type human SHOC2) (other)
chain: MSSSLGKEKDSKEKDPKVPSAKEREKEAKASGGFGKESKEKEPKTKGKDAKDGKKDSSAAQPGVAFSVDNTIKRPNPAPGTRKKSSNAEVIKELNKCREENSMRLDLSKRSIHILPSSIKELTQLTELYLYSNKLQSLPAEVGCLVNLMTLALSENSLTSLPDSLDNLKKLRMLDLRHNKLREIPSVVYRLDSLTTLYLRFNRITTVEKDIKNLSKLSMLSIRENKIKQLPAEIGELCNLITLDVAHNQLEHLPKEIGNCTQITNLDLQHNELLDLPDTIGNLSSLSRLGLRYNRLSAIPRSLAKCSALEELNLENNNISTLPESLLSSLVKLNSLTLARNCFQLYPVGGPSQFSTIYSLNMEHNRINKIPFGIFSRAKVLSKLNMKDNQLTSLPLDFGTWTSMVELNLATNQLTKIPEDVSGLVSLEVLILSNNLLKKLPHGLGNLRKLRELDLEENKLESLPNEIAYLKDLQKLVLTNNQLTTLPRGIGHLTNLTHLGLGENLLTHLPEEIGTLENLEELYLNDNPNLHSLPFELALCSKLSIMSIENCPLSHLPPQIVAGGPSFIIQFLKMQGPYRAMV
notes: Expressed transiently in Cos-1 cells from a Myc-tagged human SHOC2 cDNA construct and tested in cell lysates by co-immunoprecipitation; also called wild type SHOC2; wild-type protein; not shown: Myc tag
B1: the binding result is on record as “no binding”.
